According to patent US9181340B2, “TEM8 antibodies, conjugates thereof, and their use” (The United States of America, as represented by the …, priority 2011, dated 2015):

T1: purified recombinant hTEM8(ED)-Fc fusion protein (Homo sapiens, UniProt Q9H6X2)
T1 sequence (Q9H6X2 33-321): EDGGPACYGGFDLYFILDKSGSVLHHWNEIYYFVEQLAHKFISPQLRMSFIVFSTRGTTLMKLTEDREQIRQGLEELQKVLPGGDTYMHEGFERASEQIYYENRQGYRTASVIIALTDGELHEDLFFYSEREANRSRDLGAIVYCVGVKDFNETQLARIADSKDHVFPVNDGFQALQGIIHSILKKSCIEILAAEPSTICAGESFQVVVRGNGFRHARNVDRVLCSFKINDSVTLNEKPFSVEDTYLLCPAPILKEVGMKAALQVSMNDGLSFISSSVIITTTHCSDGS

B1: L1 Fab: fully human anti-TEM8 Fab from phage display; VH SEQ ID NO: 2, VL SEQ ID NO: 7; Fab chains SEQ ID NOs: 26, 27 (antibody)
heavy: QVQLVESGGGLVQPGGSLRLSCAASGFTFNSYAMSWVRQAPGKGLEWVSLISSGSSTYYADSVKGRFTISRDNSKNTLYLQMNSLRAEDTAVYYCARAGFKFDNWGQGTLVTVSSASTKGPSVFPLAPSSKSTSGGTAALGCLVKDYFPEPVTVSWNSGALTSGVHTFPAVLQSSGLYSLSSVVTVPSSSLGTQTYICNVNHKPSNTKVDKKVEPKSEF
light: DIELTQPPSVSVAPGQTARISCSGDSIPNYSVSWYQQKPGQAPVLVIYADSNRPSGIPERFSGSNSGNTATLTISGTQAEDEADYYCQSYDNTSPDLVFGGGTKLTVLGQPKAAPSVTLFPPSSEELQANKATLVCLISDFYPGAVTVAWKADSSPVKAGVETTTPSKQSNNKYAASSYLSLTPEQWKSHRSYSCQVTHEGSTVEKTVAPTEA
modifications: Antibody sequence
B2: L3 Fab: fully human anti-TEM8 Fab from phage display; VH SEQ ID NO: 3, VL SEQ ID NO: 8; Fab chains SEQ ID NOs: 28, 29 (antibody)
heavy: QVQLQQSGPGLVKPSQTLSLTCAISGDSVSTNGAAWGWIRQSPGRGLEWLGRIYYRSKWYNDYAVSVKSRITINPDTSKNQFSLQLNSVTPEDTAVYYCARMPGGFLFDLWGQGTLVTVSSASTKGPSVFPLAPSSKSTSGGTAALGCLVKDYFPEPVTVSWNSGALTSGVHTFPAVLQSSGLYSLSSVVTVPSSSLGTQTYICNVNHKPSNTKVDKKVEPKSEF
light: DIELTQPPSVSVAPGQTARISCSGDNIRSYYAHWYQQKPGQAPVLVIYGDSKRPSGIPERFSGSNSGNTATLTISGTQAEDEADYYCSSYASHDYVFGGGTKLTVLGQPKAAPSVTLFPPSSEELQANKATLVCLISDFYPGAVTVAWKADSSPVKAGVETTTPSKQSNNKYAASSYLSLTPEQWKSHRSYSCQVTHEGSTVEKTVAPTEA
modifications: Antibody sequence
B3: 1D2 Fab: fully human anti-TEM8 Fab from phage display; VH SEQ ID NO: 5, VL SEQ ID NO: 10; Fab chains SEQ ID NOs: 32, 33 (antibody)
heavy: QVQLKESGPALVKPTQTLTLTCTFSGFSLSTSGMGVSWIRQPPGKALEWLAHINLDDDKYYSTSLKTRLTISKDTSKNQVVLTMTNMDPVDTATYYCARGGYGDMDVWGQGTLVTVSSASTKGPSVFPLAPSSKSTSGGTAALGCLVKDYFPEPVTVSWNSGALTSGVHTFPAVLQSSGLYSLSSVVTVPSSSLGTQTYICNVNHKPSNTKVDKKVEPKSEF
light: DIELTQPPSVSVAPGQTARISCSGDNIRSMFVHWYQQKPGQAPVLVIYADNKRPSGIPERFSGSNSGNTATLTISGTQAEDEADYYCSSYDYNAHLVVFGGGTKLTVLGQPKAAPSVTLFPPSSEELQANKATLVCLISDFYPGAVTVAWKADSSPVKAGVETTTPSKQSNNKYAASSYLSLTPEQWKSHRSYSCQVTHEGSTVEKTVAPTEA
modifications: Antibody sequence
B4: L5 Fab: fully human anti-TEM8 Fab from phage display; VH SEQ ID NO: 4, VL SEQ ID NO: 9; Fab chains SEQ ID NOs: 30, 31 (antibody)
heavy: QVQLVESGGGLVQPGGSLRLSCAASGFTFNSYGLSWVRQAPGKGLEWVSNISSNGSYTYYADSVKGRFTISRDNSKNTLYLQMNSLRAEDTAVYYCARAGYGLFDVWGQGTLVTVSSAKTTAPSVYPLAPVCGDTTGSSVTLGCLVKGYFPEPVTLTWNSGSLSSGVHTFPAVLQSDLYTLSSSVTVTSSTWPSQSITCNVAHPASSTKVDKKIEPRGPTIKPCPPCKCPAPNLLGGPSVFIFPPKIKDVLMISLSPIVTCVVVDVSEDDPDVQISWFVNNVEVHTAQTQTHREDYNSTLRVVSALPIQHQDWMSGKEFKCKVNNKDLPAPIERTISKPKGSVRAPQVYVLPPPEEEMTKKQVTLTCMVTDFMPEDIYVEWTNNGKTELNYKNTEPVLDSDGSYFMYSKLRVEKKNWVERNSYSCSVVHEGLHNHHTTKSFSRTPGK
light: DIELTQPPSVSVAPGQTARISCSGDKLREYYVHWYQQKPGQAPVLVIYGDNKRPSGIPERFSGSNSGNTATLTISGTQAEDEADYYCSSWAGSRSGTVFGGGTKLTVLGQPKSTPTLTVFPPSSEELKENKATLVCLISNFSPSGVTVAWKANGTPITQGVDTSNPTKEGNKFMASSFLHLTSDQWRSHNSFTCQVTHEGDTVEKSLSPAECL
modifications: Antibody sequence
B5: L2 Fab: fully human anti-TEM8 Fab from phage display; VH SEQ ID NO: 1, VL SEQ ID NO: 6; Fab chains SEQ ID NOs: 24, 25 (antibody)
heavy: QVQLKESGPALVKPTQTLTLTCTFSGFSLSTSGGGVSWIRQPPGKALEWLAHIYSNDDKSYSTSLKTRLTISKDTSKNQVVLTMTNMDPVDTATYYCARGGYFLDYWGQGTLVTVSSAKTTAPSVYPLAPVCGDTTGSSVTLGCLVKGYFPEPVTLTWNSGSLSSGVHTFPAVLQSDLYTLSSSVTVTSSTWPSQSITCNVAHPASSTKVDKKIEPRGPTIKPCPPCKCPAPNLLGGPSVFIFPPKIKDVLMISLSPIVTCVVVDVSEDDPDVQISWFVNNVEVHTAQTQTHREDYNSTLRVVSALPIQHQDWMSGKEFKCKVNNKDLPAPIERTISKPKGSVRAPQVYVLPPPEEEMTKKQVTLTCMVTDFMPEDIYVEWTNNGKTELNYKNTEPVLDSDGSYFMYSKLRVEKKNWVERNSYSCSVVHEGLHNHHTTKSFSRTPGK
light: DIELTQPPSVSVAPGQTARISCSGDNIGGIYVHWYQQKPGQAPVLVIYADSKRPSGIPERFSGSNSGNTATLTISGTQAEDEADYYCQSYDITSLVFGGGTKLTVLGQPKSTPTLTVFPPSSEELKENKATLVCLISNFSPSGVTVAWKANGTPITQGVDTSNPTKEGNKFMASSFLHLTSDQWRSHNSFTCQVTHEGDTVEKSLSPAECL
modifications: Antibody sequence

Legend:
HCT-116 tumors = details: mouse, in vivo
[1] = molecular target: T2, human TEM8 (293/Flag-hTEM8 cells) (Homo sapiens, UniProt Q9H6X2); assay: Flow cytometry / immunofluorescence binding to 293/Flag-hTEM8 cells; details: immunofluorescence staining and flow cytometry
T2 construct: expressed in transfected cells
T2 sequence (Q9H6X2 33-564): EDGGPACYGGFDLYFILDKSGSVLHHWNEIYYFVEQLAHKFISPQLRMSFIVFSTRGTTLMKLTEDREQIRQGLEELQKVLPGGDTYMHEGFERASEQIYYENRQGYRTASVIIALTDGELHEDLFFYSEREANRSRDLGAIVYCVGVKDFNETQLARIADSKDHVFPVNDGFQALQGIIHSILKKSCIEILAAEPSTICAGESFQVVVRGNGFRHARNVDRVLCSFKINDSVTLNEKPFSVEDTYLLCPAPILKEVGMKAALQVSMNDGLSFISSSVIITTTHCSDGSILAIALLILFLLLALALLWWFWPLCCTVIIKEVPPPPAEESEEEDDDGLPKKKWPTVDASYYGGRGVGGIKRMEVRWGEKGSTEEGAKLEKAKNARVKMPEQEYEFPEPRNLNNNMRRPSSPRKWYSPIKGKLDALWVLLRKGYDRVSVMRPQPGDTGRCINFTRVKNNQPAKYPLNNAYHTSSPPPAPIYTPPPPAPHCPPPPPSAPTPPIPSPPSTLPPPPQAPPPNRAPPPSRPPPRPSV
Protocol: 293 cells were obtained from ATCC. 293 cells were cultured in DMEM supplemented with 10% FBS. 293 cells expressing mouse (293-mTEM8) or a flag-tagged human TEM8 (293/Flag-huTEM8) were generated by lipofectamine 2000 mediated stable transfection of 293 cells with a mTEM8/pcDNA3 or a Flag-huTEM8/pcDNA3 expression vector (Yang et al., Biochim Biophys Acta 1813(1):39-49, 2011).
(§1) Trypsinized cells were rinsed in cold PBS/0.5% BSA (PBS/BSA) and labeled with anti-TEM8 Fabs (human) or full IgG (human-mouse) primary antibodies in PBS/BSA containing 10% goat serum at 4° C. Cells were rinsed with PBS/BSA and incubated with FITC-conjugated goat anti-human Fab or anti-mouse IgG secondary antibodies (Jackson Immunoresearch, West Grove, Pa.), rinsed again, and analyzed on a FACScalibur flow cytometer (Becton Dickinson, Franklin Lakes, N.J.) using CellQuest™ Software.

[2] = molecular target: T3, mouse TEM8 (293/mTEM8 cells) (Mus musculus, UniProt Q9CZ52); assay: Flow cytometry binding to 293/mTEM8 cells
T3 construct: expressed in transfected cells
T3 sequence (Q9CZ52 31-562): as the sequence (Q9H6X2 33-564) above, with K40R, R104S, S241A, I297V, A327V, N458S, A468T, T471P, P493A counted along it
Protocol: 293 cells were obtained from ATCC. 293 cells were cultured in DMEM supplemented with 10% FBS. 293 cells expressing mouse (293-mTEM8) or a flag-tagged human TEM8 (293/Flag-huTEM8) were generated by lipofectamine 2000 mediated stable transfection of 293 cells with a mTEM8/pcDNA3 or a Flag-huTEM8/pcDNA3 expression vector (Yang et al., Biochim Biophys Acta 1813(1):39-49, 2011). Because transfected cells expressed variable levels of TEM8 (see 293/mTEM8 cells in FIG. 8C) they were subsequently enriched for surface expression by florescence activated cell sorting (FACS) using anti-AF344 (293/mTEM8) (Yang et al., Biochim Biophys Acta 1813(1):39-49, 2011) or anti-FLAG antibodies (293/Flag-hTEM8) (M2 clone, Sigma).
as §1

[3] = molecular target: TEM8 (CHO-TEM8 cells), binding of Anthrax PA (Homo sapiens, UniProt Q9H6X2)
[4] = molecular target: T1, purified recombinant hTEM8(ED)-Fc fusion protein; assay: ELISA of Fabs on TEM8(ED)-Fc

Row | Molecule | body weight in HCT116 tumor-bearing mice (HCT-116 tumors) | binding to cells expressing human TEM8 [1] | binding to cells expressing mouse TEM8 [2] | blocking of PA-FITC binding to CHO-TEM8 cells [3] | reactivity with TEM8 protein in ELISA [4]
1 | CCc1c2c(nc3ccc(OC(=O)N4CCC(N5CCCCC5)CC4)cc13)-c1cc3c(c(=O)n1C2)COC(=O)[C@]3(O)CC [IRT, irinotecan] | small, albeit non-significant, reduction in body weight | – | – | – | –
2 | O=c1[nH]cc(F)c(=O)[nH]1 [Antibody 5-FU, 5-fluorouracil] | small, albeit non-significant, reduction in body weight | – | – | – | –
3 | B1 | – | react | react | neutralize binding of PA to its cell surface receptor, TEM8 | react
4 | B2 | – | react | react | neutralize binding of PA to its cell surface receptor, TEM8 | react
5 | B3 | – | react | react | – | react
6 | B4 | – | react | react | neutralize binding of PA to its cell surface receptor, TEM8 | react
7 | B5 | – | react | react | neutralize binding of PA to its cell surface receptor, TEM8 | react
